Measurements as given in publication PMC4359371, “Analysis of the crystal structure of an active MCM hexamer” (eLife, 2014).

B1: Sso-PfMCM chimera (Sulfolobus solfataricus MCM N-terminal domain fused to Pyrococcus furiosus MCM AAA+ ATPase domain) (enzyme, UniProt Q9UXG1 1-269, looked up)
chain: MEIPSKQIDYRDVFIEFLTTFKGNNNQNKYIERINELVAYRKKSLIIEFSDVLSFNENLAYEIINNTKIILPILEGALYDHILQLDPTYQRDIEKVHVRIVGIPRVIELRKIRSTDIGKLITIDGILVKVTPVKERIYKATYKHIHPDCMQEFEWPEDEEMPEVLEMPTICPKCGKPGQFRLIPEKTKLIDWQKAVIQERPEEVPSGQLPRQLEIILEDDLVDSARPGDRVKVTGILDIKQDSPVKRGSRAVFDIYMKVSSIEVSQKVLQELEISPEEEQIIKELAKRKDIVDAIVDSIAPAIYGYKEVKKGIALALFGGVSRKLPDGTRLRGDIHVLLVGDPGVAKSQILRYVANLAPRAIYTSGKSSSAAGLTAAAVRDEFTGGWVLEAGALVLADGGYALIDELDKMSDRDRSVIHEALEQQTISISKAGITATLNARTTVIAAANPKQGRFNRMKNPFEQIDLPPTLLSRFDLIFVLIDEPDDKIDSEVARHILRVRRGESEVVAPKIPHEILRKYIAYARKNIHPVISEEAMEEIEKYYVRMRKSVKKTKGEEEGIPPIPITARQLEALIRLSEAHARMRLSPIVTREDAREAIKLMEYTLKQIAMD
notes: SsoMCM N-terminal domain (SsoMCMN), Sulfolobus solfataricus MCM, aa 1-269; amplified from S. solfataricus genomic DNA (ATCC); PfMCM AAA+ domain (PfMCMAAA), Pyrococcus furiosus MCM, aa 257-361/729-966 = aa 257-966 with its intein (aa 362-728) genetically removed; lacks the C-terminal helix-turn-helix domain (aa 967-1049); numbers are database (intein-containing) numbers; Crystallised with Mg/ADP; …
B2: Pyrococcus furiosus MCM AAA+ ATPase domain, crystallized construct (aa 263-361/729-966) (domain or fragment, UniProt Q8U3I4 263-966, looked up)
chain: PEEEQIIKELAKRKDIVDAIVDSIAPAIYGYKEVKKGIALALFGGVSRKLPDGTRLRGDIHVLLVGDPGVAKSQILRYVANLAPRAIYTSGKSSSAAGLTAAAVRDEFTGGWVLEAGALVLADGGYALIDELDKMSDRDRSVIHEALEQQTISISKAGITATLNARTTVIAAANPKQGRFNRMKNPFEQIDLPPTLLSRFDLIFVLIDEPDDKIDSEVARHILRVRRGESEVVAPKIPHEILRKYIAYARKNIHPVISEEAMEEIEKYYVRMRKSVKKTKGEEEGIPPIPITARQLEALIRLSEAHARMRLSPIVTREDAREAIKLMEYTLKQIAMD
notes: PfMCM AAA+ domain, Pyrococcus furiosus MCM, aa 263-361/729-966 (intein aa 362-728 genetically removed); amplified from P. furiosus genomic DNA (ATCC); numbers are database (intein-containing) numbers; A different construct (aa 252-361/729-1049) was used for the unwinding experiments and is not this molecule; also called PfMCMAAA; PfMCM-AAA; not shown: His6, N-terminal, cleaved; SUMO, N-terminal, …

Experiments:
[1] = target: the molecule itself; assay: crystal structure; Sso-PfMCM with Mg/ADP, hanging drop, 100 mM HEPES pH 7.6, 350 mM MgCl2, 3% PEG 3350; space group P6_(3), hexamer on a crystallographic threefold axis; 2.70 Å
[2] = target: the molecule itself; assay: crystal structure; PfMCMAAA with Mg/ADP, hanging drop, 50 mM sodium cacodylate pH 6.0, 50 mM magnesium acetate, 30% MPD, 5% glycerol; space group P1, 16 monomers in the asymmetric unit; 3.80 Å

Row | Protein | stoichiometry N [1] | stoichiometry N [2]
1 | B1 | 6 | 
2 | B2 |  | 16
